The results in this text go back to the supplement of paper PMC9170038.

Data set [1] relates to MS2 coat protein. The data set is described as follows: apparent KD of MS2 coat protein, switch ON state; designed switch direction (-1 OFF switch, 1 ON switch): 1; higher = weaker reporter binding. The following applies: FMN input: 0 or 200 uM; Eterna round: R93 (includes R88 designs). The method in brief:
(§1)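 Designed RNA switches, transcribed on-chip from Illumina sequencing clusters, were titrated with SNAP-549-labelled MS2 coat protein from 0.7 or 1.5 nM to 3 µM in twofold steps. The solution was 100 mM Tris-HCl pH 7.5, 80 mM KCl, 4 mM MgCl2, with constant ligand or without it. Apparent KD is the median over each design's normalised cluster binding-curve fits.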

The subject of data set [2] is MS2 coat protein. The data set is described as follows: apparent KD of MS2 coat protein, switch OFF state (with FMN for OFF switches, without FMN for ON switches); designed switch direction (-1 OFF switch, 1 ON switch): 1; higher = weaker reporter binding. Particulars: FMN input: 0 or 200 uM; Eterna round: R93 (includes R88 designs). The method, boiled down: as §1

In the case of “AAUAUAUUAUUUAAGGAUAUCAUAGGAAACACAUGAGGAUCACCCAUGUGGGAAACUUGGUCGGGUGAGAAGGUGGAUAAUAUAU [Samwise Clockwise 36 - Jieux - Same State 2]”, the entries for the “apparent KD of MS2 coat protein” value in data set [1] and in data set [2] were 17.4 nM and 24.6 nM, respectively.

In the case of “AAUCCAAAUAGUUAGGAUAUGGGAAUAAAAACAUGAGGAUCACCCAUGUAAUUGAAACAAGUUAACCAGAAGGGACAGGGUGAAA [JR_SS002_Sub210]”, the “apparent KD of MS2 coat protein” value was found to be 67.5 nM in data set [1] and 16.6 nM in data set [2].

As to “ACAAACAAAAAAGAGGAUAUCCAAAACAAAACAUGAGGAUCACCCAUGUAAAAGAAAAGAAAAUGGGAGAAGGCUUACAACAAAC [SS2 M 22]”, the “apparent KD of MS2 coat protein” value in data set [1] came to 19.4 nM; in data set [2], 28.2 nM.

In the case of “ACAAAUAAAAGAGAGGAUAUCCAAAAGAAAACAUGAGGAUCACCCAUGUGAAAGAAAAUAAAAUGGGAGAAGGCUCAGAAUAAUA [Topaz 30]”, the results for the “apparent KD of MS2 coat protein” value in data set [1] and in data set [2] were 16.4 nM and 83.2 nM, respectively.

Take “ACAAGACAUGAGGAUCACCCAUGUAAAGAAAACGCAGGAUAUGCAAAAAAAUUCAUGGGUGCAGAAGGGCGAAAAA [Default title]”: the “apparent KD of MS2 coat protein” value came to 153 nM in data set [1] and 34.2 nM in data set [2].

Consider “ACGAGGAAGAGAGAGGAUAUCCAAAGGAAAACAUGAGGAUCACCCAUGUAAAAGGUAGGAAAUUGGGAGAAGGCUCAAGAGAGAG [salish99-ss2-069]”, for which the “apparent KD of MS2 coat protein” value in data set [1] was 32.4 nM; in data set [2], 34.6 nM.

With “ACUACACAUGAGGAUCACCCAUGUCAGGCCGGACUAGGAUAUUAUAAACCAGAGUAAAAAUAAGAAGGAGUAGGAA [JR_SS001_Sub310]”, the entries for the “apparent KD of MS2 coat protein” value in data set [1] and in data set [2] were 39.2 nM and 61.3 nM, respectively.

Consider “ACUUCACAUGAGGAUCACCCAUGUCAGGCCGGACUAGGAUAUUAUCAAGCAGCGUAACCAUAAGAAGGAGUAGGAA [JR_SS001_Sub313]”, for which the figures for the “apparent KD of MS2 coat protein” value in data set [1] and in data set [2] were 57.7 nM and 82.5 nM, respectively.

For the sequence “AGAAAACAUGAGGAUCACCCAUGUAGAAAUAUGGGAGGAUAUACAUAGACGAAAGUCAUAGUAGAAGGCCUAAAGA [Mat - Same State 1 - Meechl mod - D128]”, the “apparent KD of MS2 coat protein” value came out at 15 nM in data set [1] and 49.4 nM in data set [2].

Take “AGAAAACAUGAGGAUCACCCAUGUAGAAAUAUGGGAGGAUAUACGAAGACGAAAGUCGAAGUAGAAGGCCUAAAGA [Mat - Same State 1 - Meechl mod - D126]”: the “apparent KD of MS2 coat protein” value in data set [1] turned out to be 23.2 nM; in data set [2], 50.8 nM.

For “AGAAAGAAAAGAGAGGAUAUCUAAAAGAAAACAUGAGGAUCACCCAUGUAAAAGAAAAGAAAAUGGGAGAAGGCUCAUGAGAAAG [JL Skelter Mod 7 In the Red]”, the “apparent KD of MS2 coat protein” value was 101 nM in data set [1] and 59.7 nM in data set [2].

As to “AGAAAUAAAAGAGAGGAUAUCCAAAAGAAAACAUGAGGAUCACCCAUGUAAAAGAAAAUAAAAUGGGAGAAGGCUCAUAUUAAAG [JL Skelter 2 mod 3]”, the figures for the “apparent KD of MS2 coat protein” value in data set [1] and in data set [2] were 44.9 nM and 146 nM, respectively.

In the case of “AGAAAUAAAAGAGAGGAUAUCCAAAAGAAAACAUGAGGAUCACCCAUGUACACGAAAGUGAAAUGGGAGAAGGCUCAAAAUAAAG [80% More Helter Skelter 2 + Hairpin]”, the “apparent KD of MS2 coat protein” value in data set [1] came out at 121 nM; in data set [2] it was 536 nM.

On to “AGAAAUAAAUGAGAGGAUAUCCAAAAGAAAACAUGAGGAUCACCCAUGUAAAAGAAAAUAAAAUGGGAGAAGGCUCGAAAUAAAG [80%, More Helter Skelter 2]”, for which the “apparent KD of MS2 coat protein” value in data set [1] was 22.4 nM; in data set [2] it was 68.5 nM.

With “AGAAAUAAAUGAGAGGAUAUCCAAAAGAAAACAUGAGGAUCACCCAUGUAAAAGAAAAUAAAGUGGGAGAAGGCUCGAAAUAAAG [80%, More Helter Skelter 2]”, the “apparent KD of MS2 coat protein” value in data set [1] worked out at 23.3 nM; in data set [2], 43.5 nM.

Consider “AGAAUAAAAAGAGAGGAUAUCCAUAAGAAAACAUGAGGAUCACCCAUGUGAAAGAUAAUAAAAUGGGAGAAGGCUCAAAAUAAGA [Topaz 45]”, for which the “apparent KD of MS2 coat protein” value in data set [1] came out at 21 nM; in data set [2], 20.2 nM.

Regarding “AGAAUAAAAAGAGAGGAUAUCCAUAAGAAAACAUGAGGAUCACCCAUGUGAAAGAUAAUAAGAUGGGAGAAGGCUCAAAAUAAGA [Topaz 46]”, the “apparent KD of MS2 coat protein” value in data set [1] is 20.3 nM; in data set [2], 49.5 nM.

With “AGCACGCGAUUGGAGGAUAUGUUGUUUGCAACAUGAGGAUCACCCAUGUCUGAGGCUGAAAAGCAGCAGAAGGCCGAUACAACCA [SS2-1.1]”, the “apparent KD of MS2 coat protein” value came out at 30.6 nM in data set [1] and 113 nM in data set [2].

As for “AGGAAACAUGAGGAUCACCCAUGUAAAAAAUAGGGAGGAUAUACUAGAAGAAACAAAAUAGUAGAAGGCUCAAAAA [75%, Ex sub1, 25]”, the entries for the “apparent KD of MS2 coat protein” value in data set [1] and in data set [2] were 12.9 nM and 30 nM, respectively.

As for “AGGAAACAUGAGGAUCACCCAUGUAAAAAAUAGGGAGGAUAUGGAAACACGAAAGUGAAACCAGAAGGCUCAAAAA [77%, Mat - Mod of Eli, 23]”, the results for the “apparent KD of MS2 coat protein” value in data set [1] and in data set [2] were 13.8 nM and 18.2 nM, respectively.

On to “AGGAAACAUGAGGAUCACCCAUGUAAAAAUAUGGGAGGAUAUACAAACAAGAAAGUCAAAGUAGAAGGCCUAAAAG [Garnet 6]”, for which the “apparent KD of MS2 coat protein” value in data set [1] came out at 63.7 nM; in data set [2] it was 152 nM.

For “AGGAAACAUGAGGAUCACCCAUGUAAAAAUAUGGGAGGAUAUACAAACAAGAAAGUCAGAGUAGAAGGCCUAAAAG [Garnet 7]”, the “apparent KD of MS2 coat protein” value is 73.7 nM in data set [1] and 145 nM in data set [2].

On to “AGGAAACAUGAGGAUCACCCAUGUAAAAAUAUGGGAGGAUAUACGAAGACGAAAGUAAAAGUAGAAGGCCUAAAAG [Garnet 15]”, for which the “apparent KD of MS2 coat protein” value in data set [1] came out at 31.8 nM; in data set [2], 108 nM.

Take “AGGAAACAUGAGGAUCACCCAUGUAAAAAUAUGGGAGGAUAUUGGAAUAAAAUAAAGAACCGAGAAGGCCUAAAAA [59%, Flamingo, 6]”: the entries for the “apparent KD of MS2 coat protein” value in data set [1] and in data set [2] were 32.3 nM and 219 nM, respectively.

Turning to “AGGAAACAUGAGGAUCACCCAUGUAAAGAUGGGCGAGGAUAUCGAAAGAAAAGAAAGAAACGAGAAGGCGCAAAAG [Flamingo]”, the “apparent KD of MS2 coat protein” value in data set [1] was found to be 43.7 nM; in data set [2] it was 240 nM.

Take “AGGAAACAUGAGGAUCACCCAUGUAAGAUAAACUUAGGAUAUGCGAAAAGAAACAAAGAAGCAGAAGGAGGGAGAA [75%, Ex5 sub 1, 2]”: the results for the “apparent KD of MS2 coat protein” value in data set [1] and in data set [2] were 16.5 nM and 33 nM, respectively.

Consider “AGGAAACAUGAGGAUCACCCAUGUAUAAAAAAUACAGGAUAUGGAAACACGAAAGUGAAACCAGAAGGGUAAAAAA [77%, Mat - Mod of Eli, 32]”, for which the entries for the “apparent KD of MS2 coat protein” value in data set [1] and in data set [2] were 15.9 nM and 39.9 nM, respectively.

“AGGAGACAUGAGGAUCACCCAUGUGAGAAGAGGCGAGGAUAUCGAAAGAAAGAAGAGAAACGAGAAGGCGCGAGCU [salish99-SS1-024]”: the “apparent KD of MS2 coat protein” value turned out to be 24.4 nM in data set [1] and 29.6 nM in data set [2].

On to “AGGAGACAUGAGGAUCACCCAUGUGAGAAGAGGCGAGGAUAUCGAAAGAAAGAAGAGAAACGAGAAGGCGCGAGGU [salish99-SS1-023]”, for which the figures for the “apparent KD of MS2 coat protein” value in data set [1] and in data set [2] were 23.6 nM and 36.7 nM, respectively.

“AGGAGACAUGAGGAUCACCCAUGUGCACGUGGAGGAGGAUAUGCUAGUAGAAGAUAGAAAGCAGAAGGCCUAAGAA [mod of top voted: #2]”: the “apparent KD of MS2 coat protein” value came out at 44.3 nM in data set [1] and 37.2 nM in data set [2].

Turning to “AGGAGACAUGAGGAUCACCCAUGUGCACGUGGAGGAGGAUAUGCUAGUAGAAGAUAGAAUGCAGAAGGCCUAAGAA [JR_SameState1_Sub3]”, the entries for the “apparent KD of MS2 coat protein” value in data set [1] and in data set [2] were 42.8 nM and 35.3 nM, respectively.

Take “AUAAAACAUGAGGAUCACCCAUGUAGACAUAUGGGAGGAUAUACUAGAUCGAAAGAUCUAGUAGAAGGUCUUUAAA [JL Mod of Eli 9]”: the “apparent KD of MS2 coat protein” value in data set [1] is 297 nM; in data set [2], 257 nM.

With “AUAAAACAUGAGGAUCACCCAUGUAGCUAAAGCACAGGAUAUAGGAGUCCGAGCAGACAUCUAGAAGGGUGGAAAA [Veeslelein]”, the “apparent KD of MS2 coat protein” value in data set [1] is 57.5 nM; in data set [2] it was 88.6 nM.

With “AUAAAAGAAGCGAAGGAUAUCCAACUCAAAACAUGAGGAUCACCCAUGUAAAGAAAUAAAAAAUGGGAGAAGGUCGCAAAGAAUA [73%, More Fisker Same State 2, D3, 14]”, the “apparent KD of MS2 coat protein” value in data set [1] came out at 582 nM; in data set [2], 40.1 nM.

Consider “AUAAGACAUGAGGAUCACCCAUGUAUAAGAGCAUGAGGAUAUAUGAAAAGUAAUAGGAGAAUAGAAGGCAUAGUUG [JR_SS001_Sub1220]”, for which the “apparent KD of MS2 coat protein” value was 80.7 nM in data set [1] and 92.4 nM in data set [2].

Turning to “AUAAUAUUAAGCAAGGAUAUACUAAAGUAAACAUGAGGAUCACCCAUGUGAAAAAAAAAACUCAUGUAGAAGGUGCAUAAAUAAA [moonwalk 11]”, the “apparent KD of MS2 coat protein” value came out at 23.9 nM in data set [1] and 50 nM in data set [2].

For “AUACUACAUGAGGAUCACCCAUGUUGAAAUAUGGAAGGAUAUACGUAGUAAAAUAACUACGUAGAAGGUCCAGAAA [SS1 MT 22]”, the “apparent KD of MS2 coat protein” value in data set [1] worked out at 18.7 nM; in data set [2], 19.6 nM.

On to “AUAGAACAUGAGGAUCACCCAUGUAAAAAAGCAUGAGGAUAUAUAAGUAAAUAAAAUAAGAUAGAAGGCAUGAUAA [JR_SS001_Sub1701]”, for which the “apparent KD of MS2 coat protein” value in data set [1] worked out at 52 nM; in data set [2], 91.4 nM.
